This note sets out measurements from the supplement of paper PMC10567573.

B1: CAMK2B (parent)
chain: YQQIKAGAYDFPSPEWDTVTPEAK
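Note: lentivirally expressed fusions sorted by FACS into six bins by GFP to DsRed ratio, PSI derived from sequencing read proportions per bin multiplied by bin number.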

The data set covers variants of B1. Put plainly: protein stability index of a GFP-peptide fusion (GPS, HEK-293T) (PSI 1-6); higher = more stable. Particulars: c terminus: a fixed tail appended.
As for YQQYKAGAYDFPSPEWDTVTPEAK [I4Y], the protein stability index is 3.21. In the case of YQQWKAGAYDFPSPEWDTVTPEAK [I4W] it was 2.05; in that of YQQVKAGAYDFPSPEWDTVTPEAK [I4V], 3.93; in that of YQQIKAGAYDYPSPEWDTVTPEAK [F11Y], 3.95. In the case of YQQIKAGAYDWPSPEWDTVTPEAK [F11W] it was 3.15; in that of YQQIKAGAYDNPSPEWDTVTPEAK [F11N], 4.37; in that of YQQIKAGAYDKPSPEWDTVTPEAK [F11K], 3.91. Consider YQQIKAGAYDLPSPEWDTVTPEAK [F11L], for which the protein stability index was 3.97.

Take YQQIKAGAYDVPSPEWDTVTPEAK [F11V]: the protein stability index turned out to be 4.15. In the case of YQQIKAGAYDPPSPEWDTVTPEAK [F11P] it was 4.67; in that of YQQIKAGAYDCPSPEWDTVTPEAK [F11C], 4; in that of YQQIKAGAYDIPSPEWDTVTPEAK [F11I], 3.8.

Turning to YQQIKAGAYDEPSPEWDTVTPEAK [F11E], the protein stability index was determined as 4.72. In the case of YQQIKAGAYDQPSPEWDTVTPEAK [F11Q] it was 4.24; in that of YQQIKAGAYDMPSPEWDTVTPEAK [F11M], 4.04. YQQIKAGAYDDPSPEWDTVTPEAK [F11D]: the protein stability index stood at 4.63. In the case of YQQIKAGAYDGPSPEWDTVTPEAK [F11G] it was 4. In the case of YQQIKAGAYDTPSPEWDTVTPEAK [F11T] it was 4.43; in that of YQQIKAGAYDHPSPEWDTVTPEAK [F11H], 4.2.

Consider YQQIKAGAYDRPSPEWDTVTPEAK [F11R], for which the protein stability index was found to be 3.73. To YQQIKAGAYDAPSPEWDTVTPEAK [F11A] belongs 4.58; to YQQIKAGAYDSPSPEWDTVTPEAK [F11S], 4.36.

With YQQIKATAYDFPSPEWDTVTPEAK [G7T], the protein stability index worked out at 3.83.

Consider YQQIKAKAYDFPSPEWDTVTPEAK [G7K], for which the protein stability index is 3.27. YQQIKAHAYDFPSPEWDTVTPEAK [G7H]: the protein stability index came out at 3.69. In the case of YQQIKAEAYDFPSPEWDTVTPEAK [G7E] it was 4.23. Turning to YQQIKACAYDFPSPEWDTVTPEAK [G7C], the protein stability index was determined as 2.77. In the case of YQQIKASAYDFPSPEWDTVTPEAK [G7S] it was 3.78; in that of YQQIKANAYDFPSPEWDTVTPEAK [G7N], 3.77. In the case of YQQIKAPAYDFPSPEWDTVTPEAK [G7P] it was 3.86; in that of YQQIKALAYDFPSPEWDTVTPEAK [G7L], 3.

In the case of YQQIKAWAYDFPSPEWDTVTPEAK [G7W], the protein stability index worked out at 2.31. In the case of YQQIKAYAYDFPSPEWDTVTPEAK [G7Y] it was 1.87; in that of YQQIKADAYDFPSPEWDTVTPEAK [G7D], 3.99; in that of YQQIKARAYDFPSPEWDTVTPEAK [G7R], 2.96.

Turning to YQQIKAQAYDFPSPEWDTVTPEAK [G7Q], the protein stability index amounted to 3.92. As for YQQIKAMAYDFPSPEWDTVTPEAK [G7M], the protein stability index is 3.23. For the variant YQQIKAFAYDFPSPEWDTVTPEAK [G7F], the protein stability index came to 1.86.

YQQIKAVAYDFPSPEWDTVTPEAK [G7V]: the protein stability index was 3.53. For the variant YQQIKAAAYDFPSPEWDTVTPEAK [G7A], the protein stability index worked out at 3.79. To YQQIKAIAYDFPSPEWDTVTPEAK [G7I] belongs 3.25; to YQQIKAGAYDFISPEWDTVTPEAK [P12I], 3.21; to YQQIKAGAYDFGSPEWDTVTPEAK [P12G], 3.71.

Consider YQQIKAGAYDFDSPEWDTVTPEAK [P12D], for which the protein stability index stood at 4.01.

On to YQQIKAGAYDFRSPEWDTVTPEAK [P12R], for which the protein stability index was determined as 2.34.

Regarding YQQIKAGAYDFASPEWDTVTPEAK [P12A], the protein stability index came to 2.94.

On to YQQIKAGAYDFQSPEWDTVTPEAK [P12Q], for which the protein stability index worked out at 4. To YQQIKAGAYDFTSPEWDTVTPEAK [P12T] belongs 3.36; to YQQIKAGAYDFYSPEWDTVTPEAK [P12Y], 3.71.

As for YQQIKAGAYDFSSPEWDTVTPEAK [P12S], the protein stability index is 3.29. To YQQIKAGAYDFNSPEWDTVTPEAK [P12N] belongs 3.94. To YQQIKAGAYDFHSPEWDTVTPEAK [P12H] belongs 3.21; to YQQIKAGAYDFESPEWDTVTPEAK [P12E], 4.09. For the variant YQQIKAGAYDFVSPEWDTVTPEAK [P12V], the protein stability index amounted to 2.81.

For YQQIKAGAYDFWSPEWDTVTPEAK [P12W], the protein stability index stood at 3.5. To YQQIKAGAYDFFSPEWDTVTPEAK [P12F] belongs 2.25. To YQQIKAGAYDFCSPEWDTVTPEAK [P12C] belongs 2.76; to YQQIKAGAYDFLSPEWDTVTPEAK [P12L], 2.9; to YQQIKAGAYDFKSPEWDTVTPEAK [P12K], 3.3. In the case of YQQIKAGAYDFMSPEWDTVTPEAK [P12M] it was 3.08. With YQQIKAGAYDFPSDEWDTVTPEAK [P14D], the protein stability index came out at 4.42.

For YQQIKAGAYDFPSHEWDTVTPEAK [P14H], the protein stability index is 3.65. For the variant YQQIKAGAYDFPSMEWDTVTPEAK [P14M], the protein stability index was 3.55. In the case of YQQIKAGAYDFPSQEWDTVTPEAK [P14Q] it was 3.87; in that of YQQIKAGAYDFPSREWDTVTPEAK [P14R], 3.37; in that of YQQIKAGAYDFPSCEWDTVTPEAK [P14C], 3.45. In the case of YQQIKAGAYDFPSGEWDTVTPEAK [P14G] it was 4.03; in that of YQQIKAGAYDFPSSEWDTVTPEAK [P14S], 3.71. To YQQIKAGAYDFPSFEWDTVTPEAK [P14F] belongs 2.67. As for YQQIKAGAYDFPSNEWDTVTPEAK [P14N], the protein stability index is 3.88. YQQIKAGAYDFPSAEWDTVTPEAK [P14A]: the protein stability index was found to be 3.96. Take YQQIKAGAYDFPSEEWDTVTPEAK [P14E]: the protein stability index worked out at 4.47. As to YQQIKAGAYDFPSIEWDTVTPEAK [P14I], the protein stability index was found to be 3.4. To YQQIKAGAYDFPSKEWDTVTPEAK [P14K] belongs 3.85. To YQQIKAGAYDFPSLEWDTVTPEAK [P14L] belongs 3.17; to YQQIKAGARDFPSPEWDTVTPEAK [Y9R], 3.64.

On to YQQIKAGAFDFPSPEWDTVTPEAK [Y9F], for which the protein stability index stood at 3.5.

Turning to YQQIKAGAPDFPSPEWDTVTPEAK [Y9P], the protein stability index came to 4.17. To YQQIKAGAMDFPSPEWDTVTPEAK [Y9M] belongs 4.1; to YQQIKAGAVDFPSPEWDTVTPEAK [Y9V], 4.13. In the case of YQQIKAGAWDFPSPEWDTVTPEAK [Y9W] it was 2.48; in that of YQQIKAGAGDFPSPEWDTVTPEAK [Y9G], 4.6; in that of YQQIKAGAIDFPSPEWDTVTPEAK [Y9I], 3.9. On to YQQIKAGATDFPSPEWDTVTPEAK [Y9T], for which the protein stability index was 4.23.

Regarding YQQIKAGADDFPSPEWDTVTPEAK [Y9D], the protein stability index worked out at 4.73.

For YQQIKAGAEDFPSPEWDTVTPEAK [Y9E], the protein stability index turned out to be 4.71. In the case of YQQIKAGAHDFPSPEWDTVTPEAK [Y9H] it was 4.14; in that of YQQIKAGAKDFPSPEWDTVTPEAK [Y9K], 3.99. Regarding YQQIKAGANDFPSPEWDTVTPEAK [Y9N], the protein stability index came to 4.26. As for YQQIKAGALDFPSPEWDTVTPEAK [Y9L], the protein stability index turned out to be 4.04. To YQQIKAGACDFPSPEWDTVTPEAK [Y9C] belongs 3.79; to YQQIKAGAQDFPSPEWDTVTPEAK [Y9Q], 4.48. For the variant YQQIKAGAADFPSPEWDTVTPEAK [Y9A], the protein stability index amounted to 4.37.

For the variant YQQIKAGASDFPSPEWDTVTPEAK [Y9S], the protein stability index worked out at 4.3.
